Results taken from PMC9304036 (Proceedings of the National Academy of Sciences of the …, 2022).

B1: ADG20 Fab (Fab, V domains shown)
VH: EVQLVESGGGLVKPGGSLRLSCAASGFTFSSYYMNWVRQAPGKGLEWVSSISEDGYSTYYPDSLKGRFTISRDSAKNSLYLQMNSLRADDTAVYYCARDFSGHTAWAGTGFEYWGQGTLVTVSS
VL: QPVLTQPPSVSGAPGQRITISCTGSSSNIGAGYDVHWYQQLPGTAPKLLIYGSSSRNSGVPDRFSGSKSGTSASLAITGLQAEDEADYYCQSYDSSLSVLYTFGTGTKVTVL
notes: also called ADG-2 (same Fab domain)
B2: ADG20 IgG (antibody, V domains shown)
VH: EVQLVESGGGLVKPGGSLRLSCAASGFTFSSYYMNWVRQAPGKGLEWVSSISEDGYSTYYPDSLKGRFTISRDSAKNSLYLQMNSLRADDTAVYYCARDFSGHTAWAGTGFEYWGQGTLVTVSS
VL: QPVLTQPPSVSGAPGQRITISCTGSSSNIGAGYDVHWYQQLPGTAPKLLIYGSSSRNSGVPDRFSGSKSGTSASLAITGLQAEDEADYYCQSYDSSLSVLYTFGTGTKVTVL
notes: copies: 2 + 2
B3: ADI-55688 Fab (Fab, V domains shown)
VH: EVQLVESGGGLVKPGGSLRLSCAASGFTFSSYYMNWVRQAPGKGLEWVSSISSDGYNTYYPDSLKGRFTISRDSAKNSLYLQMNSLRADDTAVYYCARDFSGHTAVAGTGFEYWGQGTLVTVSS
VL: QPVLTQPPSVSGAPGQRITISCTGSSSNIGAGYDVHWYQQLPGTAPKLLIYGSSSRPSGVPDRFSGSKSGTSASLAITGLQAEDEADYYCQSYDSSLSVLYVFGTGTKVTVL
notes: also called parental antibody of ADG20

Columns and labels:
[1] = biological target: SARS-CoV-2 spike receptor-binding domain (RBD), residues 333 to 529, wild type, for crystallization (SARS-CoV-2 Wuhan-Hu-1 (QHD43416.1), UniProt P0DTC2); assay: crystal structure; conditions: both partners purified
[2] = biological target: SARS-CoV-2 RBD, ancestral (wild type), for biolayer interferometry (SARS-CoV-2 Wuhan-Hu-1 (ancestral), UniProt P0DTC2); assay: BLI; Octet Red; […] (15 µg/mL) […] (AHC) biosensors; […]; 1x PBS pH 7.4, 0.01% BSA, 0.002% Tween 20; association 90 s, dissociation 90 s; 1:1 binding model; conditions: both partners purified

Binder | binding result [1] | binding result [2]
B1 | binds | –
B2 | – | binds
B3 | binds | –
